These substances were tested against GMPPA, Q96IJ6-1.
Sequence of GMPPA, Q96IJ6-1 (Q96IJ6 whole entry): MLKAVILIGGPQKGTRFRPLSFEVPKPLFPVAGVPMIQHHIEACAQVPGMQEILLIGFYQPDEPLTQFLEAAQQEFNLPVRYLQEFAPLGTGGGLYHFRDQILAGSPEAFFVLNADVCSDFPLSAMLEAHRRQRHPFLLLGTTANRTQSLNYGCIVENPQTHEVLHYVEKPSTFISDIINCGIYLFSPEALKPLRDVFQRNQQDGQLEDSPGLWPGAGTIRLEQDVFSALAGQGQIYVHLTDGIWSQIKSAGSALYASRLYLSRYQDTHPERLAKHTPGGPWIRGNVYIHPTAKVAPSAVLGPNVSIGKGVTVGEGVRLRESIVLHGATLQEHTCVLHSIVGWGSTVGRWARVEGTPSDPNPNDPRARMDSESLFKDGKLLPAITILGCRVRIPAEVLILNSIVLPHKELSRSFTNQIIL

Sequence of Mannose-1-phosphate guanylyltransferase catalytic subunit beta (Homo sapiens), Q9Y5P6-1 R357H (Q9Y5P6 whole entry R357H): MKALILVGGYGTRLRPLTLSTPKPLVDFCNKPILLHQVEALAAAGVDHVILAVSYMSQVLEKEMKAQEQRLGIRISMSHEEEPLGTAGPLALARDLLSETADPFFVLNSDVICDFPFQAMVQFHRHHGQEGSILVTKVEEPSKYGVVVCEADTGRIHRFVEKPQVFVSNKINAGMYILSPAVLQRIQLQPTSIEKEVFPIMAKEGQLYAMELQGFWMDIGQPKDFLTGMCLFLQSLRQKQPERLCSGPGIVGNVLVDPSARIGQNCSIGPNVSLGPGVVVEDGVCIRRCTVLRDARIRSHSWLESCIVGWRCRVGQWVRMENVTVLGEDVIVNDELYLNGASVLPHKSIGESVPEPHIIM
Sequence of Mannose-1-phosphate guanylyltransferase catalytic subunit beta (Homo sapiens), Q9Y5P6-1 R293W (Q9Y5P6 whole entry R293W): as the sequence (Q9Y5P6 whole entry R357H) above, with R293W, H357R counted along it
Sequence of Mannose-1-phosphate guanylyltransferase catalytic subunit beta (Homo sapiens), Q9Y5P6-1 D334N (Q9Y5P6 whole entry D334N): as the sequence (Q9Y5P6 whole entry R357H) above, with D334N, H357R counted along it
Sequence of Mannose-1-phosphate guanylyltransferase catalytic subunit beta (Homo sapiens), Q9Y5P6-1 C266Y (Q9Y5P6 whole entry C266Y): as the sequence (Q9Y5P6 whole entry R357H) above, with C266Y, H357R counted along it
Sequence of Mannose-1-phosphate guanylyltransferase catalytic subunit beta (Homo sapiens), Q9Y5P6-1 L303F (Q9Y5P6 whole entry L303F): as the sequence (Q9Y5P6 whole entry R357H) above, with L303F, H357R counted along it

Row | effect of a mutation on the interaction | Substance
1 | with no effect | Mannose-1-phosphate guanylyltransferase catalytic subunit beta (Homo sapiens), Q9Y5P6-1 C266Y
2 | decreasing interaction strength | Mannose-1-phosphate guanylyltransferase catalytic subunit beta (Homo sapiens), Q9Y5P6-1 R357H

Further lines, the substance ahead of its results:

Row | Substance | effect of a mutation on the interaction
3 | Mannose-1-phosphate guanylyltransferase catalytic subunit beta (Homo sapiens), Q9Y5P6-1 D334N | with no effect
4 | Mannose-1-phosphate guanylyltransferase catalytic subunit beta (Homo sapiens), Q9Y5P6-1 L303F | with no effect
5 | Mannose-1-phosphate guanylyltransferase catalytic subunit beta (Homo sapiens), Q9Y5P6-1 R293W | with no effect

— IntAct's records for PubMed 33986552
